These results are taken from patent US20260317410 (published 2026).

In one assay the target is T1, Fc-Nectin-4 IgV (human, UniProt Q96NY8).
T1 chain: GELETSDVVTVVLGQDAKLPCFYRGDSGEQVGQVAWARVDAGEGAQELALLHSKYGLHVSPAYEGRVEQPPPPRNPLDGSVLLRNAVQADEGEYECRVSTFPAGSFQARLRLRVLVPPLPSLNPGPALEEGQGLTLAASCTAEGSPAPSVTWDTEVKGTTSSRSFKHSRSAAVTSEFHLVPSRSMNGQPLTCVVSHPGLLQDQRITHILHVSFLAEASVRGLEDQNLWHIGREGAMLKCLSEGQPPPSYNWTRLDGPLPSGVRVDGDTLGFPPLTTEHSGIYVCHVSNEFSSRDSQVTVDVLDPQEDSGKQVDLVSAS
The assay can be described thus: BLI, 26C, bivalent analyte. For orientation: Biolayer interferometry detects binding as a change in optical thickness at a sensor tip.

Another assay deals with T2, His-Nectin-4 ECD (human, UniProt Q96NY8).
T2 chain: T1 chain
The assay can be described thus: BLI, 26C.

B1: HA22 (Enfortumab) (antibody, V domains shown)
VH: EVQLVESGGGLVQPGGSLRLSCAASGFTFSSYNMNWVRQAPGKGLEWVSYISSSSSTIYYADSVKGRFTISRDNAKNSLSLQMNSLRDEDTAVYYCARAYYYGMDVWGQGTTVTVSS
VL: DIQMTQSPSSVSASVGDRVTITCRASQGISGWLAWYQQKPGKAPKFLIYAASTLQSGVPSRFSGSGSGTDFTLTISSLQPEDFATYYCQQANSFPPTFGGGTKVEIK
For B1, the Kd with Fc-Nectin-4 IgV was 12.9 nM; with His-Nectin-4 ECD it was 5.2 nM.
